In publication PMC2254190, “T Cell Receptor Engagement Triggers Its CD3ε and CD3ζ Subunits to Adopt a Compact, Locked Conformation” (PLoS ONE, 2008):

Biological target: SH3.1 domain of Nck (NMR work, in preparation) (UniProt P16333 2-61)
Experiment: not stated; affinity told in the discussion without method

B1: CD3ε polypeptide (NMR work, in preparation) (domain or fragment)
chain: KNRKAKAKPVTRGAGAGGRQRGQNKERPPPVPNPDYEPIRKGQRDLYSGLNQRRI
modifications: The construct is not described (unpublished NMR work, 'in preparation'). The whole cytoplasmic tail, by UniProt topology, is used because it holds the PPS with its upstream and downstream charged …
**Q.** How did the Kd turn out when B1 was run?
**A.** The Kd was ~100 nM.
